Data as given in publication PMC9808371, “Extracellular Galectin 4 Drives Immune Evasion and Promotes T-cell Apoptosis in Pancreatic Cancer” (Cancer Immunology Research, 2022).

Assays:
[1] = molecular target: T1, human recombinant CD3ε/δ heterodimer (human, UniProt P07766 23-126; P04234 22-105, N-linked glycosylations (sites not given)); assay: SPR
T1 chain 1: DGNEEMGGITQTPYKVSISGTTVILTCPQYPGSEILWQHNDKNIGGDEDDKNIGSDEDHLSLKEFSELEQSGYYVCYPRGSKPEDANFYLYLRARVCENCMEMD
T1 chain 2: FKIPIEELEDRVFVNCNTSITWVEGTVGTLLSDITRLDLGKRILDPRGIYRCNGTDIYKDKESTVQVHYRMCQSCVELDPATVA

[2] = molecular target: T2, human recombinant CD3ε/γ heterodimer (human, UniProt P07766 23-126; P09693 23-116); assay: SPR
T2 chain 1: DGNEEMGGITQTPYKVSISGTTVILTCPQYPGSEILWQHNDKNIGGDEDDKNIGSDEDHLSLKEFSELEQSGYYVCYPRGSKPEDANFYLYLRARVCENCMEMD
T2 chain 2: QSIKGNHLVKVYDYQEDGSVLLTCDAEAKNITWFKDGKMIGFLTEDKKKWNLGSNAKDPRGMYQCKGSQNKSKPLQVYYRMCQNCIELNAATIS

[3] = molecular target: T3, human recombinant CD3ε/δ heterodimer (human, UniProt P07766 23-126; P04234 22-105, N-linked glycosylations (sites not given)); assay: SPR; CD3 heterodimers amine-coupled at pH 4 to CM5 chips (mouse CD3ε/δ 3,900 RU, human CD3ε/δ 9,800 RU, human CD3ε/γ 8,900 RU); gal 4 as analyte, 2-fold dilutions 16 to 0.5 μmol/L, 120 s association, 120 s dissociation; 25°C; 10 mmol/L phosphate pH 7.4, 140 mmol/L NaCl, 0.27 mmol/L KCl, 0.05% Tween 20; Biacore T-200; details: both partners purified
T3 construct: CD3 epsilon chain, human; CD3 delta chain, human; it is probably made of the extracellular domains with vendor tags (surmise); The vendor's catalogue entry would give them; also called human CD3ε/δ; CD3δ/ε; source: bought: ACROBiosystems, CDD-H52wa-100 μg

- Kd [1]: ~1 µM
- Kd [2]: ~10 µM
- fold affinity against CD3γ/ε [3]: 10 fold
B1: human recombinant galectin 4 (natural protein, UniProt P56470 1-323, looked up)
chain: MAYVPAPGYQPTYNPTLPYYQPIPGGLNVGMSVYIQGVASEHMKRFFVNFVVGQDPGSDVAFHFNPRFDGWDKVVFNTLQGGKWGSEERKRSMPFKKGAAFELVFIVLAEHYKVVVNGNPFYEYGHRLPLQMVTHLQVDGDLQLQSINFIGGQPLRPQGPPMMPPYPGPGHCHQQLNSLPTMEGPPTFNPPVPYFGRLQGGLTARRTIIIKGYVPPTGKSFAINFKVGSSGDIALHINPRMGNGTVVRNSLLNGSWGSEEKKITHNPFGPGQFFDLSIRCGLDRFKVYANGQHLFDFAHRLSAFQRVDTLEIQGDVTLSYVQI
notes: galectin 4 (LGALS4), Homo sapiens, cDNA NM_006149.4 recloned from pcDNA3.1-C-(k)DYK into pET-His1a (NcoI + Acc65I); The Hisx6-TEV tag was removed before use; also called gal 4; hgal 4; source: E. coli Rosetta (DE3), purified (NiNTA, tag removal with TEV protease, second NiNTA run); not shown: His6, N-terminal, cleaved
